In paper PMC6200327 (The Biochemical journal, 2018):

Biological target: the molecule itself
Experiment: crystal structure

B1: mouse RIG-I CARDs (residues 1-189), bacterially expressed (domain or fragment, UniProt Q6Q899 1-189, looked up)
chain: MTAEQRQNLQAFRDYIKKILDPTYILSYMSSWLEDEEVQYIQAEKNNKGPMEAASLFLQYLLKLQSEGWFQAFLDALYHAGYCGLCEAIESWDFQKIEKLEEHRLLLRRLEPEFKATVDPNDILSELSECLINQECEEIRQIRDTKGRMAGAEKMAECLIRSDKENWPKVLQLALEKDNSKFSELWIVD
stoichiometry N: 4
